Laboratory results: patent US20050025760A1 (KEIO UNIVERSITY, published 2005)

Experiments:
Assay in all cases: immunoprecipitation of point-mutated molecules (FIG. 5)
Dsg3-M3 = target: T1, Dsg3-M3 (human, UniProt P32926 50-615, V53I; D54N; K55Q; N56K)
T1 construct: extracellular domain; also called point-mutated human Dsg3 molecule M3; not shown: His tag of vector pEVmod-His
T1 sequence (looked up): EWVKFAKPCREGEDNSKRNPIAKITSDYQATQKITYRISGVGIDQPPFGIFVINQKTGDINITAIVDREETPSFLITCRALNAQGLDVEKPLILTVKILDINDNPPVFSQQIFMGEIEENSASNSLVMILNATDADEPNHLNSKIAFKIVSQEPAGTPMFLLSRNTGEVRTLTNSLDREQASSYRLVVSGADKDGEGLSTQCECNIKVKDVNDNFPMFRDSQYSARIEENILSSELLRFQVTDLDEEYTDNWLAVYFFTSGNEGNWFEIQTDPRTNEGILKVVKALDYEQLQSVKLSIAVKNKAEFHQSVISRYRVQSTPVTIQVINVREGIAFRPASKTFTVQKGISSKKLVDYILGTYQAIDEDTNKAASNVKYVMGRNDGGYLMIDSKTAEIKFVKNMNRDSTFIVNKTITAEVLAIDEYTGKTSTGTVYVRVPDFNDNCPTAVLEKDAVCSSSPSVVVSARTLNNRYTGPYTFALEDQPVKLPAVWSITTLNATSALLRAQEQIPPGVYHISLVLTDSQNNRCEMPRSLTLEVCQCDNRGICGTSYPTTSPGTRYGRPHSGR

Dsg3-M6 = target: T2, Dsg3-M6 (human, UniProt P32926 50-615, A83S; Q84M)
T2 construct: extracellular domain; also called point-mutated human Dsg3 molecule M6; not shown: His tag of vector pEVmod-His
T2 sequence (looked up): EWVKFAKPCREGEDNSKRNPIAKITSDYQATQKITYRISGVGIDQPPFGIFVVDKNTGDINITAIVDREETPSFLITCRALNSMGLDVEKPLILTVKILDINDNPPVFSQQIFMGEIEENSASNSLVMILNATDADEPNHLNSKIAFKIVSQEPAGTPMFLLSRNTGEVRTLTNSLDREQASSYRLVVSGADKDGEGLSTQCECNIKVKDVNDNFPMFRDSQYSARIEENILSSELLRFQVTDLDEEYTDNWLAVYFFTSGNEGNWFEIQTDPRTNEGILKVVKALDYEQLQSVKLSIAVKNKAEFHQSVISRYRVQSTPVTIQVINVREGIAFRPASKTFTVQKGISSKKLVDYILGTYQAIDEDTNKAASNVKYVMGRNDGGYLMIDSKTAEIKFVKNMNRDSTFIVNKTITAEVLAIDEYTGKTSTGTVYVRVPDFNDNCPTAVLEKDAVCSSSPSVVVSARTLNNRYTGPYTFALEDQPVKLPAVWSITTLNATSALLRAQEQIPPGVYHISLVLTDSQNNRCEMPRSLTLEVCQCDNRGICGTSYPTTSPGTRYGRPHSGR

Dsg1-M7 = target: T3, Dsg1-M7 (human, UniProt Q02413 50-545, I3V; A7K; A8P)
T3 construct: extracellular domain; also called hDsg1-M7
T3 sequence (looked up): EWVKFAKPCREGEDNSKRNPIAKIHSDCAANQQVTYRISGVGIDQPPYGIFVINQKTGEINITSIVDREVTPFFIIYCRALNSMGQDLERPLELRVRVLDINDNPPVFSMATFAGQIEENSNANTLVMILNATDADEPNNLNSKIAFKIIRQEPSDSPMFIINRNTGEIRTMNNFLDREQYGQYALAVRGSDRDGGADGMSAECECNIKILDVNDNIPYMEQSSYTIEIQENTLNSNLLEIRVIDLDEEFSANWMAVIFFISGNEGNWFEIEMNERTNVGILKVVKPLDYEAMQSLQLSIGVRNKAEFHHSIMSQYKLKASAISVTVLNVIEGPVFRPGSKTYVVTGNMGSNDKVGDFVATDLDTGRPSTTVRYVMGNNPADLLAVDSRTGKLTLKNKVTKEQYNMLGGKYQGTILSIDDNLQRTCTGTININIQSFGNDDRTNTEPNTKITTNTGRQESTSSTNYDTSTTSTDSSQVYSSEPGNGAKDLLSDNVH

Dsg1-M1-2 = target: T4, Dsg1-M1-2 (human, UniProt Q02413 50-545, H25T; C28Y; A29Q; N31T; Q33K; V34I)
T4 construct: extracellular domain; Dsg1-specific residues changed to the Dsg3-specific ones; also called hDsg1-M1-2
T4 sequence (looked up): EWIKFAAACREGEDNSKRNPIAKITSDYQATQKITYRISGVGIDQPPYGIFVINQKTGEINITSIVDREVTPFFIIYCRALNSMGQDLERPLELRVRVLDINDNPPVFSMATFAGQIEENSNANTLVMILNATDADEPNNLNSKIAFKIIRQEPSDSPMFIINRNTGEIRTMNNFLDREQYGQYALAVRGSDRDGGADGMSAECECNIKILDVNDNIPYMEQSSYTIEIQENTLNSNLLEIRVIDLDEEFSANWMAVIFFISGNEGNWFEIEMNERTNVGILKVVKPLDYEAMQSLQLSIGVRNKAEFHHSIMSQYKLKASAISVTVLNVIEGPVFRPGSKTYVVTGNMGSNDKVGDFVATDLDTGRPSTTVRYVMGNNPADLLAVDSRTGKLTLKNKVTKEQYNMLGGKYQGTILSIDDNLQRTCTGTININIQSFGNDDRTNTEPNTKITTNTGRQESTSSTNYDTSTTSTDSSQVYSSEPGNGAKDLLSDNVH

B1: anti-Dsg3 monoclonal antibody AK23 (antibody, mouse IgG1, V domains shown)
VH: QVQLQQSGTELVKPGASVKLSCKSSGYTFTSYWINWVKQRPGQGLEWIGNINPSNGGINYNEKFKSKATLTVDKSSSTAYMQLKSLTSEDSAVYYCARGGYDGYPWGQGTTVTVS
VL: DIQMTQSPKFLLVSAGDRVTITCKASQSVSYDVAWYQQKPGQSPKLLISYASNRYTGVPDRFTGSGYGSDFTFTISTVQTEDLAVYFCQQDYSSPWTFGGGTKLELKR
notes: Mouse IgG1 kappa hybridoma antibody
Question: Does B1 bind (Dsg3-M3)?
Answer: binds

Question: Does B1 bind (Dsg3-M6)?
Answer: binds

Question: Does B1 bind (Dsg1-M7)?
Answer: no binding

Question: Does B1 bind (Dsg1-M1-2)?
Answer: no binding
